From US20050208041A1 (Bristol-Myers Squibb, published 2005)
Substitutions are numbered along the chain they refer to. Like-named read-outs stand apart in the source and are kept apart here.

How the values were obtained:
[1] = biological target: T1, purified recombinant IFNAR-1 extracellular fragment (human, UniProt P17181 28-436); experiment: Biacore, IFNAR-1 extracellular fragment coupled to CM5 chip, antibody 1.75-80 nM
T1 construct: extracellular domain; also called soluble IFNAR-1; soluble IFNAR
T1 sequence (looked up): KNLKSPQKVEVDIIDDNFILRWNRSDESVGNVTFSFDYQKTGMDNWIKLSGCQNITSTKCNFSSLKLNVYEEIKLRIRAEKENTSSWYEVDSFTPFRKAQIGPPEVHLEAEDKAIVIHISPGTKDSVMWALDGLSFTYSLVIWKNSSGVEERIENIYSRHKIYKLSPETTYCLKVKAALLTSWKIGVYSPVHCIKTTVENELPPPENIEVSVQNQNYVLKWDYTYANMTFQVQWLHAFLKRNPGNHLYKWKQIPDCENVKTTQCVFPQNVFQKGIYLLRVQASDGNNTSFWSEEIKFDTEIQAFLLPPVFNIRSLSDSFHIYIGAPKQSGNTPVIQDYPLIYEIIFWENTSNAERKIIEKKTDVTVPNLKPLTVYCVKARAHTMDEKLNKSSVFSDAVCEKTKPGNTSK
Description: Antibodies from clones 64G12, H2K6, H2K1, H3K6, and H3K1 were assayed by Biacore analysis (Biacore AB, Uppsala, Sweden) to determine binding kinetics. Purified recombinant IFNAR-1 extracellular fragment was coupled to the CM5 sensor chip @ 600 RU. Binding was measured by adding antibody at concentrations from 1.75-80 nM at a flow rate of 20 ul/min. The binding curves were fit to a Langmuir binding model using BIAevaluation software (Biacore AB, Uppsala, Sweden).

IFNAR-1 on human cells [2] = biological target: T2, IFNAR-1 on human cells (human, UniProt P17181 28-557); experiment: cell-based or functional assay
T2 sequence (looked up): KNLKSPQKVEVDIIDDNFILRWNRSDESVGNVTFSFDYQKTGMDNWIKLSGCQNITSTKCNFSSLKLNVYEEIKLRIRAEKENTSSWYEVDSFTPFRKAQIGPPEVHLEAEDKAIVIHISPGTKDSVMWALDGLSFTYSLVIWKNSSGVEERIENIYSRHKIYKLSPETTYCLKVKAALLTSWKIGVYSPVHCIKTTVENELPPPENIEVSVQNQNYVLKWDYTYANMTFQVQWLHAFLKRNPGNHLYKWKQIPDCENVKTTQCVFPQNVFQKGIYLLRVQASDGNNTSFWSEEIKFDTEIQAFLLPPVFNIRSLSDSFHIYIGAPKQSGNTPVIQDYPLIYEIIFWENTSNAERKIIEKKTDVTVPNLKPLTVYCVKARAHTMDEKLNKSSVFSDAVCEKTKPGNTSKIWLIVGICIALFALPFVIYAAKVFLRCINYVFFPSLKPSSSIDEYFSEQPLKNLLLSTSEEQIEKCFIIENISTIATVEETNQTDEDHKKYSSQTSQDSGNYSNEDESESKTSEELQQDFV

[3] = biological target: T1, purified recombinant IFNAR-1 …; experiment: Receptor Binding (Biacore), purified recombinant receptor; Biacore, purified recombinant receptor (not BALL-1 cells)
IFNAR-1 on human cells [4] = biological target: T2, IFNAR-1 on human cells; experiment: Scatchard analysis, 125I-labelled antibody on BALL-1 cells
Description: BALL-1 cells, which express IFNAR-1 and IFNAR-2, were used to assess the binding of anti-IFNAR-1 humanized antibodies to cells by Scatchard analysis. The cells were grown in RPMI containing 10% FCS and washed twice with Hanks Balanced Salt Solution (HBSS) at 4 degrees C. […] Millipore plates (MAFB NOB) were coated with 1% nonfat dry milk in water and stored a 4° C. overnight. The plates were washed with binding buffer and 25 ul of unlabeled antibody (1000-fold excess) in TBS binding buffer was added to control wells in a Millipore 96 well glass fiber filter plate (non-specific binding NSB). Twenty-five microliters of buffer alone was added to the maximum binding control well (total binding). Twenty-five microliters of ¹²⁵I-anti-IFNAR-1 antibody and 25 ul of BALL-I cell suspension (4×10⁷ cells/ml) in TBS binding buffer were added. The plates were incubated for 2 hours at 200 RPM on a shaker at 4° C. At the completion of the incubation the Millipore plates were washed twice with 0.2 ml of cold TBS binding buffer containing a final concentration of 0.5 M NaCl. The filters were removed and counted in a gamma counter. Evaluation of equilibrium binding was performed using single site binding parameters with the Prism software (San Diego, Calif.).
Therefore in either a protein-based or cell-based assay, the binding affinity of the antibodies are in the low nM range.

IFNAR-1 on human cells [5] = biological target: T2, IFNAR-1 on human cells; experiment: cell-based or functional assay; remark: listed apart in the source
[6] = biological target: T1, purified recombinant IFNAR-1 …; experiment: Biacore, maximal association on IFNAR-1 relative to M3K1
Text: (§1) Pools 4 and 11 were selected for further study and the individual antibodies in each pool were produced and expressed separately. The sequences of these individual antibodies were as shown in SEQ ID NO:12 of FIG. 1F and SEQ ID NO: 13 of FIG. 1G. The data is presented as maximal association relative to M3K1. […]

[7] = biological target: T1, purified recombinant IFNAR-1 …; experiment: Biacore, antibody captured on anti-human IgG Fc, soluble IFNAR 25-400 nM, flow cell 2-1 low density capture
[8] = biological target: T1, purified recombinant IFNAR-1 …; experiment: Biacore, response on IFNAR-1 (flow cell 2) divided by response on anti-human IgG Fc (flow cell 4)
[9] = biological target: T1, purified recombinant IFNAR-1 …; experiment: Biacore, antibody captured on anti-human IgG Fc, soluble IFNAR-1 25-400 nM, flow cell 4-3 higher density capture
Text: (§2) The binding affinity of M3K1 was compared to that of H3K1.

[10] = biological target: T1, purified recombinant IFNAR-1 …; experiment: Biacore, antibody captured on anti-human IgG Fc, soluble IFNAR 25-400 nM, flow cell 2-1 low density capture; Flow cell 2-1, low density capture
Text: as §2

[11] = biological target: T1, purified recombinant IFNAR-1 …; experiment: Biacore, antibody captured on anti-human IgG Fc, soluble IFNAR 25-400 nM, flow cell 4-3 higher density capture
[12] = biological target: T1, purified recombinant IFNAR-1 …; experiment: Biacore, antibody captured on anti-human IgG Fc, soluble IFNAR-1 25-400 nM, flow cell 2-1 low density capture
Text: as §2

[13] = biological target: T1, purified recombinant IFNAR-1 …; experiment: Biacore, antibody on immobilized soluble IFNAR-1, maximal response, mean of four
Description: Additional combination variants heavy chain DI M3-B and light chain DI K1-C were also made. These combination variants were also tested for binding to IFNAR-1. […] Binding analysis was done by Biacore, with the antibody bound to immobilized soluble IFNAR-1. Maximal response was determined at two concentrations and values shown are mean of four determinations.

[14] = biological target: T1, purified recombinant IFNAR-1 …; experiment: Biacore, maximal association on IFNAR-1 relative to M3K1; remark: listed apart in the source
Text: as §1

[15] = biological target: T1, purified recombinant IFNAR-1 …; experiment: Biacore, 200 nM antibody on immobilized soluble IFNAR-1
[16] = biological target: T1, purified recombinant IFNAR-1 …; experiment: Receptor Binding (Biacore), purified recombinant receptor

B1: murine monoclonal antibody 64G12 (antibody, V domains shown)
VH: QVTLKESGPGILKPSQTLSLTCSFSGFSLSTSGMGIGWIRQPSGKGLEWLAHIWWDDDKYYNPSLKSQLTISRDTSTNQVFLNITSVDTVDTATYYCGRNYYPYDAWFDYWGQGTLVTVS
VL: EIVLTQSPTTMAASPGEKITITCSASSSINSNHLHWYQQKPGFSPKVLIYRTSILASGVPTRFSGSGSGTSYSLTIGTMEAEDVATYYCQQGSNIPFTFGSGTELEIKR
notes: Mouse IgG1, kappa light chain; also called 64G12 (mouse IgG1); murine anti-IFNAR-1 mAb 64G12
Kd [1]: 1.2 nM | Cell Proliferation (Daudi) IC50, cells cultured with interferon α2b (IFNAR-1 on human cells [2]): 2.1 nM | ISRE-RG Reporter (U937) IC50, interferon α2b (IFNAR-1 on human cells [2]): 5.8 nM | Kd [3]: 1.2 nM | Kd (IFNAR-1 on human cells [4]): 3.9 nM | fold decrease in ISRE-RG reporter assay with IFNβ, potency against H3K1 (IgG1) (IFNAR-1 on human cells [5]): 3 fold

B2: H3K1 (IgG1) (antibody, V domains shown)
VH: EVQLVESGGGLVQPGGSLRLSCAFSGFTLSTSGMGIGWVRQAPGKGLEWVAHIWWDDDKYYNPSLKSRFTISRDTSKNTVYLQMNSLRAEDTAVYYCARNYYPYDAWFDYWGQGTLVTVS
VL: DIQMTQSPSSLSASVGDRVTITCSASSSINSNHLHWYQQKPGKAPKLLIYRTSILASGVPSRFSGSGSGTSFTLTISSLQPEDFATYYCQQGSNIPFTFGQGTKVEIKR
Cell Proliferation (Daudi) IC50, cells cultured with interferon α2b (IFNAR-1 on human cells [2]): 3.9 nM | ISRE-RG Reporter (U937) IC50, interferon α2b (IFNAR-1 on human cells [2]): 2.7 nM | ISRE-RG reporter assay with IFNβ, potency against H3K1 (IgG4) (IFNAR-1 on human cells [5]): ~10 fold

B3: M3K1 (antibody, V domains shown)
VH: B2 VH with V5L
VL: B2 VL
notes: also called heavy chain M3 with light chain K1
% activity relative to M3K1 [6]: 100% | Kd [7]: 7.09 nM | koff [7]: 3.79e-05 s⁻¹ | % activity relative to H3K1 [8]: 140% | Fc2/Fc4 [8]: 0.42 | Kd [9]: 7.99 nM | koff [9]: 4.39e-05 s⁻¹ | kon [9]: 5490 M⁻¹ s⁻¹ | kon [10]: 5340 M⁻¹ s⁻¹ | Kd [11]: 7.99 nM | koff [11]: 4.39e-05 s⁻¹ | kon [11]: 5490 M⁻¹ s⁻¹ | Kd [12]: 7.09 nM | koff [12]: 3.79e-05 s⁻¹ | kon [12]: 5340 M⁻¹ s⁻¹ | % response relative to H3K1 [13]: 97% | % activity relative to M3K1 [14]: 100%

B4: H3K1 (IgG4) (antibody, V domains shown)
VH: B2 VH
VL: B2 VL
notes: also called H3K1 standard; humanized anti-IFNAR-1 mAb H3K1
Max Response relative to H3K1 (%) [15]: 100% | % activity relative to M3K1 [6]: 138% | % activity relative to H3K1 [8]: 100% | Fc2/Fc4 [8]: 0.3 | Kd [1]: 3.4 nM | Kd [16]: 3.4 nM | Kd [9]: 6.43 nM | koff [9]: 4.81e-05 s⁻¹ | kon [9]: 7480 M⁻¹ s⁻¹ | Cell Proliferation (Daudi) IC50, cells cultured with interferon α2b (IFNAR-1 on human cells [2]): 9.1 nM | ISRE-RG Reporter (U937) IC50, interferon α2b (IFNAR-1 on human cells [2]): 21.5 nM | Kd [12]: 6.26 nM | koff [12]: 5.04e-05 s⁻¹ | kon [12]: 8060 M⁻¹ s⁻¹ | Kd (IFNAR-1 on human cells [4]): 4 nM | % response relative to H3K1 [13]: 100% | % activity relative to M3K1 [14]: 115%

B5: mouse-human chimeric antibody with 64G12 variable regions and human IgG4 kappa constant regions (antibody, V domains shown)
VH: B1 VH
VL: B1 VL
notes: also called Chimeric IgG4; human IgG4 chimeric antibody
Kd [1]: 3.6 nM

B6: H2K6 (antibody, V domains shown)
VH: QVTLKESGPALVKPTQTLTLTCTFSGFSLSTSGMGIGWIRQPPGKALEWLAHIWWDDDKYYNPSLKSRLTISRDTSKNQVVLTMTNMDPVDTATYYCGRNYYPYDAWFDYWGQGTLVTVS
VL: EIVLTQSPDFQSVTPKEKVTITCSASSSINSNHLHWYQQKPGQSPKLLIYRTSILASGVPSRFSGSGSGTSFTLTINSLEAEDVATYYCQQGSNIPFTFGQGTKLEIKR
notes: Full-length antibody with human IgG constant regions; also called heavy chain H2 with light chain K6
Kd [1]: 1.3 nM

B7: H2K1 (antibody, V domains shown)
VH: B6 VH
VL: B2 VL
notes: Full-length antibody with human IgG constant regions; also called heavy chain H2 with light chain K1
Kd [1]: 0.8 nM

B8: H3K6 (antibody, V domains shown)
VH: B2 VH
VL: B6 VL
notes: Full-length antibody with human IgG constant regions; also called heavy chain H3 with light chain K6
Kd [1]: 1.8 nM
